From paper PMC7254967

How the values were obtained:
Assay in all cases: crystal structure
[1] = target: F6, fused 4-oxalocrotonate tautomerase from Caballeronia arationis (Caballeronia arationis)
[2] = target: Q0, fused 4-oxalocrotonate tautomerase from Bordetella trematum (Bordetella trematum)
[3] = target: R7, fused 4-oxalocrotonate tautomerase from Burkholderia sp. RPE67 (Burkholderia sp. RPE67)
[4] = target: W0, fused 4-oxalocrotonate tautomerase from Advenella mimigardefordensis DPN7 (Advenella mimigardefordensis DPN7)

Substance: F6, fused 4-oxalocrotonate tautomerase from Caballeronia arationis (enzyme)
- stoichiometry N [1]: 3

Substance: Q0, fused 4-oxalocrotonate tautomerase from Bordetella trematum (enzyme)
- stoichiometry N [2]: 3

Substance: R7, fused 4-oxalocrotonate tautomerase from Burkholderia sp. RPE67 (enzyme)
- stoichiometry N [3]: 3

Substance: W0, fused 4-oxalocrotonate tautomerase from Advenella mimigardefordensis DPN7 (enzyme)
- stoichiometry N [4]: 3
